assay: yeast display, Sf9 membrane polyspecificity reagent, FACS + sequencing; frameworks hold sequencing errors
Outline: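 After 36–48 hours of galactose induction, yeast (Saccharomyces cerevisiae BJ5465) displaying a synthetic nanobody library were stained at 4 °C for 1 hour with 10% biotinylated, detergent-solubilized Sf9 membrane reagent. Streptavidin microbeads enriched the stained cells before FACS sorting into low and high (top ~1%) gates on anti-HA and streptavidin fluorescence. Each clone's polyreactivity label reflects its gate of origin.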

Row | Sequence | polyreactivity (PSR sort gate)
1 | QVQLVESGGGLVQAGGSLRLSCAASGSIFKYYAMGWYRQAPGKERELVAAITSGGSTSYADSVKGRFTISRDNAKNTVYLQMNSLKPEDTAVYYCAASGNSYRLRYWWSELDYWGQGTQVTVSS | high polyreactivity
2 | QVQLVESGGGLVQAGGSLRLSCAASGSIFKYYAMGWYRQAPGKERELVAAITWSGGRTNYADSVKGRFTISRDNAKNTVYLQMNSLKPEDTAVYYCNKAYPGLERWYRGLYYWGQGTQVTVSS | high polyreactivity
3 | QVQLVESGGGLVQAGGSLRLSCAASGSIFKYYAMGWYRQAPGKERELVASITSGGSTNYADSVKGRFTISRDNAKNTVYLQMNSLKPEDTAVYYCAADGVRVPRREYDYWGQGTQVTVSS | low polyreactivity
4 | QVQLVESGGGLVQAGGSLRLSCAASGSIFKYYVMGWYRQAPGKERELVAAISSGGGSTYYADSVKGRFTISRDNAKNTVYLQMNSLKPEDTAVYYCNKKYRSRWQGPFDYWGQGTQVTVSS | high polyreactivity
5 | QVQLVESGGGLVQAGGSLRLSCAASGSIFLAKAMGWYRQAPGKERELVAAINYADSVKGRFTISRDNAKNTVYLQMNSLKPEDTAVYYCYSKYDYWGQGTQVTVSS | low polyreactivity
6 | QVQLVESGGGLVQAGGSLRLSCAASGSIFLANAMGWYRQAPGKERELVAAINYADSVKGRFTISRDNAKNTVYLQMNSLKPEDTAVYYCYSKYDYWGQGTQVTVSS | low polyreactivity
7 | QVQLVESGGGLVQAGGSLRLSCAASGSIFLAYAMGWYRQAPGKERELVATISSGGSTNYADSVKGRFTISRDNAKNTVYLQMNSLKPEDTAVYYCIADYSIPGYYWPYDYWGQGTQVTVSS | low polyreactivity
8 | QVQLVESGGGLVQAGGSLRLSCAASGSIFLDYAMGWYRQAPGKERELVAGITISGGSTYYADSVKGRFTISRDNAKNTVYLQMNRLKPEDTAVYYCSKVAPRSSSSQEYYYWGQGTQVTVSS | low polyreactivity
9 | QVQLVESGGGLVQAGGSLRLSCAASGSIFLDYAMGWYRQAPGKERELVAGITISGGSTYYAVSVKGRFTISRDNAKNTVYLQMYSLNREDTAVYYCAKVAPRSSSSQEYYYWGQGTQVTVSS | low polyreactivity
10 | QVQLVESGGGLVQAGGSLRLSCAASGSIFLFYALGWSRQAPGKERELVATINWSGCTTYYADSVKGRFTISRDNAKNTVYFQMNSLKPEDNAFYYCAAYSVYGRYGRTFYYWGQGTQVTVSS | high polyreactivity
11 | QVQLVESGGGLVQAGGSLRLSCAASGSIFLGNAMGWYRQAPGKERELVAAISSITGRTYYAESVKGRFTISRDNAKNTVYLQMNSLKPEDTAVYYCNKVKRSFIVKTDDYWGQGTQVTVSS | high polyreactivity
12 | QVQLVESGGGLVQAGGSLRLSCAASGSIFLHNAMGWYRQAPGKERELVAAISGTGGRTYYADSVKGRFTISRDNAKNTVYLQMNSLKPEDTAVYYCAKTLRDPYRYDYWGQGTQVTVSS | high polyreactivity
13 | QVQLVESGGGLVQAGGSLRLSCAASGSIFLIYAMGGYRPAPGKERELVAGINWSGSRTYYADSVKGRFTISRDNAKNTVYLQMNSLKPEDTAVYYCAARVRRPLYSAYDSWGQGTQVTVSS | low polyreactivity
14 | QVQLVESGGGLVQAGGSLRLSCAASGSIFLKYAMGWYRQAPGKERELVATISRGGSTNYADSVKGRFTISRDNAKNTVYLQMNSLKPEDTAVYYCAAKYGRPYGTYGYKSLLVGDMYYWGQGTQVTVSS | high polyreactivity
15 | QVQLVESGGGLVQAGGSLRLSCAASGSIFLLYAMGWYRQAPGKERELVAAISLSTGNTYYADSVKGRFTISRDNAKNTVYLQMNSLKPEDTAVYYCAAEDYWSAYYWGQGTQVTVSS | high polyreactivity
16 | QVQLVESGGGLVQAGGSLRLSCAASGSIFLPNAMGWYRQAPGKERELVARITSTGSTNYADSVKGRFTISRDNAKNTVYLQMNSLKPEDTAVYYCAADYYPFYVKREQAYPDIPYDSWGQGTQVTVSS | low polyreactivity
17 | QVQLVESGGGLVQAGGSLRLSCAASGSIFLPYAMGWYRQAPGKEREFVAAIRWSTGRTFYADSVKGRVTISRDNAKNTVYLQMNSLKPEDTAVYYCAAKYYDSWYTYRYDYWGQGTQVTVSS | high polyreactivity
18 | QVQLVESGGGLVQAGGSLRLSCAASGSIFLPYAMGWYRQAPGKERELVAAITWGGDSTYADSVKGRFTISRDNAKNTVYLQMNSLKPEDTAVYYCAAGAGFESDYWGQGTQVTVSS | low polyreactivity
19 | QVQLVESGGGLVQAGGSLRLSCAASGSIFLRIAMGWYRQAPGKERELVARIRGGGSTYYADSVKGRFTISRDNAKNTVYLQMNSLKPEDTAVYYCAKDYYKYADGYDYWGQGTQVTVSS | high polyreactivity
20 | QVQLVESGGGLVQAGGSLRLSCAASGSIFLRYAMGWYRQAPGKERELVAAISGRGGSTYYADSVKGRFTISRDNAKNTVYLQMNSLKPEDTAVYYCAAYRGRSLEYDYWGQGTQVTVSS | high polyreactivity
21 | QVQLVESGGGLVQAGGSLRLSCAASGSIFLRYTMGWYRQAPGKETEFVAAITWTADSTYYADSVKGRFTISRDNAKNTVYLQMNSLKPEDTAVYYCAASYSTIWTLYYYWGQGTQVTVSS | low polyreactivity
22 | QVQLVESGGGLVQAGGSLRLSCAASGSIFLSYNMGRYRQAPGKERELVAAITSGGSTKYADSVKGRFTISRDNAKNTVYLQMNSLKPEDTAVYYCNATPYSRLGYWGQGTQVTVSS | high polyreactivity

Row | Sequence | polyreactivity (PSR sort gate)
23 | QVQLVESGGGLVQAGGSLRLSCAASGSIFLVNALGWYRQAPGKERELVAAISWSGGSTYYAESVKGRFTISRDNAKNTVYLQMKSLKPEDTAVYYCAADWFAANYYVNTVSALDYWGLGTQVTVSS | low polyreactivity
24 | QVQLVESGGGLVQAGGSLRLSCAASGSIFLVYAMGWYRQAPGKERELVAAISQRVGRTYYADSVKGRFTISRDNAKNTVYLQMNSLKPEDTAVYYCNARVYDPTRGFNYWGQGTQVTVSS | high polyreactivity
25 | QVQLVESGGGLVQAGGSLRLSCAASGSIFLVYAMGWYRQAPGKERELVAVISRGGITNYADSVKGRFTISGDNAKNTVYLQMNSLKPEDTAVYYCAAEPRPSWSRYTYGYWGQGTQVTVSS | low polyreactivity
26 | QVQLVESGGGLVQAGGSLRLSCAASGSIFLYNAMGWYRQAPGKERELVATITSSTGSTYYADSVKGRFTISRDNAKNTVYLQMNSLKPEDTAVYYCATRESRRQRRYYYWGQGTQVTLSS | high polyreactivity
27 | QVQLVESGGGLVQAGGSLRLSCAASGSIFLYYAMGWYRQAPGKERELVAGIRRGGRTNYADSVKGRFTISRDNAKNTVYLQMNSLKPEDTAVYYCAKGGYWGQGTQVTVSS | high polyreactivity
28 | QVQLVESGGGLVQAGGSLRLSCAASGSIFLYYAMGWYRQAPGKERELVATITKGGGSTYYADSVKGRFTISRDNAKNTVYLQMNSLKPEDTAVYYCAADAAHSEYDYWGQGTLVTVSS | high polyreactivity
29 | QVQLVESGGGLVQAGGSLRLSCAASGSIFNANAMGWYRQAPGKEWELVARITRGGRTNYADSVKGRFTISRDNAKNTVYLQMNSLKPEDTAVYYCAAVYYVGFPHKYDYWGQGTQVNVSS | low polyreactivity
30 | QVQLVESGGGLVQAGGSLRLSCAASGSIFNAYVMGWYRQAPGKERELVAAISRSGGRTYYADSVKGRFTISRDNAKNTVYLQMNSLKPEDNAVYYCAADYGGPYGQLDYWGQGTQVTVSS | high polyreactivity
31 | QVQLVESGGGLVQAGGSLRLSCAASGSIFNGNAMGWYRQAPGKERELVAAISRNGGSTYYADSVKGRFTISRDNAKNTVYLQMNSLKPEDTAVYYCAVRKRPHGYLAFGYWGQGTQVTVSS | low polyreactivity
32 | QVQLVESGGGLVQAGGSLRLSCAASGSIFNGNAMGWYRQAPGKERELVAAISRNRGSTYYADSVKGRFTISRDNAKNTVYLQMNSLKPEDTAVYYCPTDLTVYYSYYWMYWGQGTQVTVSS | low polyreactivity
33 | QVQLVESGGGLVQAGGSLRLSCAASGSIFNGNAMGWYRQAPGKERELVAAITRRGGRTYYADSVKGRFTISRDNAKNTVYLQMNSLKPDDTAVYYCNAYSKAVQGGYDYWGQGTQVTVSS | high polyreactivity
34 | QVQLVESGGGLVQAGGSLRLSCAASGSIFNGYVMGWYRQAPGKERELVAAISGSGGRTYYADSVKGRFTISRDNAKNTVYLQMNSLKPEDTAVYYCAAYPDLRDSRRIRYGYNYWGQGTQVTVSS | high polyreactivity
35 | QVQLVESGGGLVQAGGSLRLSCAASGSIFNGYVMGWYRQAPGKERELVASINRGGTTNYADSVKGRFTISRDNAKNTVYLQMNSLKPEDTAVYYCAVDDDANSLGGYYVLFDYWGQGTQVTVSS | low polyreactivity
36 | QVQLVESGGGLVQAGGSLRLSCAASGSIFNHYAMGWYRQAPGKERELVATITDGGSTYYADSVKGRFTISRDNAKNTVYLQMNSLKPEDTAVYYCATDRRRFWVIYYYWGQGTQVTVSS | low polyreactivity
37 | QVQLVESGGGLVQAGGSLRLSCAASGSIFNINAMGWYRHAPGKERELVAVITSRDGRTYYADSVKGRFTISRDNAKNTVYLQMNSLKPEDTAVYYCAADVVNRHYYFWGQGTQVTVSS | low polyreactivity
38 | QVQLVESGGGLVQAGGSLRLSCAASGSIFNIYDMGWSRQAPGKERELVAGISWDGDSTYYADSVKGRFTISRDNAKNTVYLQMNSLKPEDTAVEYCAAVYTRAHISYYYWGQGTQVTVSS | high polyreactivity
39 | QVQLVESGGGLVQAGGSLRLSCAASGSIFNKYAMGWYRQAPGKERELVAAISVSGTRTYYADSVKGRFTISRDTAKNTVYLQMNSLKPEDTAVYYCATKFFRTAYEYWGQGTQVTVSS | high polyreactivity
40 | QVQLVESGGGLVQAGGSLRLSCAASGSIFNLYAMGWYRQAPGKERELVAGIRWSGGRTYYADSVKGRFTISRDNAKYTVYLQMNSLKPEDTAVYYCAAEYRSWRYTGYSYYYWGQGTQVTVSS | high polyreactivity
41 | QVQLVESGGGLVQAGGSLRLSCAASGSIFNNNAMGWYRQAPGKERELVADITASGGNTNYADSVKGRFTISRDNAKNTVYLQMNSLKPEDTAVYYCNAGGFYGTLFFPLDIYYVGYDYWGQGTQVTVSS | low polyreactivity
42 | QVQLVESGGGLVQAGGSLRLSCAASGSIFNPNAMGWYRQAPGKERELVAAISYSDATTYYADSVKGRFTISRDNAKNTVYLQMNSLKPEDTAVYYCAAEPAAGDYDYWGQGTQVTVSS | high polyreactivity
43 | QVQLVESGGGLVQAGGSLRLSCAASGSIFNQYPMGWYRQAPGKERELVAAISSGSTYYADSVKGRFIISRDNAKITVYLQMNSMKAEDTAVNNCAKDRHSPYWAMDYWGQGTQVTVSS | high polyreactivity

— the nanobody polyreactivity screen of Harvey et al. (2022)
